In US20250243260A1 (ALPINE IMMUNE SCIENCES, published 2025):

What was measured:
[1] = molecular target: human CD28 (endogenously expressed on primary human T cells) (human) (UniProt P10747); experiment: flow cytometry, primary human T cells
human CD28 on cells [2] = molecular target: T1, human CD28 on cells (human, UniProt P10747 19-220); experiment: cell-based or functional assay
human CD28 on cells [3] = molecular target: T1, human CD28 on cells; experiment: flow cytometry, primary human T cells
Procedure: (§1) Binding affinity to CD28 was determined using primary human T cells which endogenously express CD28. Binding to PD-L1 was determined using SCC152 cells transduced with human PD-L1. Binding to CTLA-4 was measured using Chinese hamster ovary (CHO) cells stably transduced to express human CTLA-4.
(§2) For staining and analysis by flow cytometry, 75,000 human T cells, SCC152/PD-L1 cells, or CHO/CTLA-4 cells were plated in 96-well round-bottom plates. Cells were spun down and resuspended in staining buffer (PBS (phosphate buffered saline), 1% BSA (bovine serum albumin), 1 mM EDTA, and 0.1% sodium azide) for 20 minutes to block non-specific binding. Afterwards, cells were centrifuged, stain buffer aspirated, and then resuspended in 50 μL of a 1:5 serial dilution of each CD80-Fc candidate variant starting at 100 nM ending at 0.8 nM. Primary staining was performed on ice for 60 minutes, before washing cells in […] staining buffer three times. PE-conjugated anti-human Fc (Jackson ImmunoResearch, USA) was diluted 1:250 in 50 μL staining buffer and added to cells and incubated another 30 minutes at 4° C. Cells were washed two times in 150 μL stain buffer and then fixed in 2% formaldehyde/PBS for 5 minutes at room temperature. Samples were analyzed CytoFLEX LX flow cytometer (Beckman Coulter, USA). Median Fluorescence Intensity (MFI) was calculated for each cell type using the CytExpert software from Beckman Coulter.
(§3) Binding assays were carried out to assess the specificity and affinity of multivalent proteins to cell-expressed CTLA-4, CD28, and PD-L1 counter structures.

human CTLA-4 (human) = human CTLA-4 (human) (UniProt P16410); experiment: flow cytometry on CHO/CTLA-4 cells
Chain of human CTLA-4 (human) (P16410 36-223): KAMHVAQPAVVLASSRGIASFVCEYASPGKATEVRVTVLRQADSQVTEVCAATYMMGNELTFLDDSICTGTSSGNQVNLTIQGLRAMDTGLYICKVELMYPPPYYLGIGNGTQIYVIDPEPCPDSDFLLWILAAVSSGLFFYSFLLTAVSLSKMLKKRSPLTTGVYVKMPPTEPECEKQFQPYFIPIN

human PD-L1 [4] = molecular target: T2, human PD-L1 (human, UniProt Q9NZQ7 19-290); experiment: flow cytometry, SCC152 cells transduced with human PD-L1, anti-human Fc detection
T2 construct: whole, on cells
T2 sequence (Q9NZQ7 19-290): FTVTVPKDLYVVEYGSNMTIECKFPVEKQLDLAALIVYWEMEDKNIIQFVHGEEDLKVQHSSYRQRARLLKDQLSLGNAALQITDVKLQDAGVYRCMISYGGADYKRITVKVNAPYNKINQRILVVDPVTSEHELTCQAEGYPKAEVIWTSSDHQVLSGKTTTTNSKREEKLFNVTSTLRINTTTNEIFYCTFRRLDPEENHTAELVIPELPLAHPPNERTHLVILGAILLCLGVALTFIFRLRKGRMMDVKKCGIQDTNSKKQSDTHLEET
Procedure: as §1, §2, §3

human PD-L1 [5] = molecular target: T2, human PD-L1; experiment: flow cytometry, SCC152 cells transduced with human PD-L1; MFI against WT CD80 ECD-Fc
Procedure: as §1, §2, §3

[6] = molecular target: T3, human CTLA-4 on CHO cells (human, UniProt P16410 36-223); experiment: flow cytometry, CHO/CTLA-4 cells
T3 construct: whole, on cells; also called CHO/CTLA-4
T3 sequence (P16410 36-223): as the sequence (P16410 36-223) above
Procedure: as §1, §2, §3

## CD80_223-Fc, variant CD80 IgV-Fc E10S/V68M/Y87P (Fc fusion)
[1]
  MFI (anti-human Fc) at 0.8 nM: 190 MFI
  MFI (anti-human Fc) at 4 nM: 195 MFI
  MFI (anti-human Fc) at 20 nM: 223 MFI
  MFI (anti-human Fc) at 100 nM: 318 MFI
  fold change of MFI vs WT CD80 at 20 nM: 1.2 fold

## CD80_188-Fc, variant CD80 IgV-Fc E35D/V68L/L85E (Fc fusion)
[1]
  MFI (anti-human Fc) at 0.8 nM: 201 MFI
  MFI (anti-human Fc) at 4 nM: 191 MFI
  MFI (anti-human Fc) at 20 nM: 224 MFI

## WT CD80 ECD-Fc IgG4 (Fc fusion)
Human CD28 on cells [2]
  Rel. Luminescence Units (RLU) at 2 nM, K562/OKT3/PD-L1 + Jurkat/IL-2 reporter: 2830 RLU
  Rel. Luminescence Units (RLU) at 10 nM, K562/OKT3/PD-L1 + Jurkat/IL-2 reporter: 2660 RLU
  Rel. Luminescence Units (RLU) at 50 nM, K562/OKT3/PD-L1 + Jurkat/IL-2 reporter: 2440 RLU
  Rel. Luminescence Units (RLU) at 250 nM, K562/OKT3/PD-L1 + Jurkat/IL-2 reporter: 2640 RLU
Human CD28 on cells [3]
  Anti-Human Fc (MFI) at 0.8 nM: 178 MFI
  Anti-Human Fc (MFI) at 4 nM: 168 MFI
  Anti-Human Fc (MFI) at 20 nM: 180 MFI
  Anti-Human Fc (MFI) at 100 nM: 184 MFI

## CD80_181-Fc, variant CD80 IgV-Fc K9S/E10R/V11Y/M47L/A71G (Fc fusion)
[1]
  MFI (anti-human Fc) at 4 nM: 212 MFI
  MFI (anti-human Fc) at 100 nM: 313 MFI

## CD80_201-Fc, variant CD80 IgV-Fc E10G/H18Y/T28Y/M47W/T62S (Fc fusion)
[1]
  MFI (anti-human Fc) at 0.8 nM: 199 MFI
  MFI (anti-human Fc) at 4 nM: 201 MFI
  MFI (anti-human Fc) at 20 nM: 254 MFI

## CD80_227-Fc, variant CD80 IgV-Fc V11W/T28H/D46Q/V68L/L85E (Fc fusion)
[1]
  MFI (anti-human Fc) at 0.8 nM: 193 MFI
  MFI (anti-human Fc) at 4 nM: 209 MFI
  MFI (anti-human Fc) at 20 nM: 224 MFI
  MFI (anti-human Fc) at 100 nM: 283 MFI
  fold change of MFI vs WT CD80 at 20 nM: 1.2 fold

## wild-type CD80 ECD-Fc (unmodified CD80 ECD fused to IgG4 Fc) (Fc fusion)
[1]
  MFI (anti-human Fc) at 0.8 nM: 178 MFI
  MFI (anti-human Fc) at 4 nM: 168 MFI
  MFI (anti-human Fc) at 20 nM: 180 MFI
  MFI (anti-human Fc) at 100 nM: 184 MFI

## CD80_196-Fc, variant CD80 IgV-Fc V11Y/M42W/E52K/T62A/L85E (Fc fusion)
[1]
  MFI (anti-human Fc) at 0.8 nM: 245 MFI
  MFI (anti-human Fc) at 4 nM: 247 MFI
  MFI (anti-human Fc) at 20 nM: 274 MFI
  MFI (anti-human Fc) at 100 nM: 301 MFI
  fold change of MFI vs WT CD80 at 20 nM: 1.5 fold

## CD80_194-Fc, variant CD80 IgV-Fc V11Y/M42W/T62A (Fc fusion)
[1]
  MFI (anti-human Fc) at 0.8 nM: 245 MFI
  MFI (anti-human Fc) at 4 nM: 246 MFI
  MFI (anti-human Fc) at 20 nM: 262 MFI
  MFI (anti-human Fc) at 100 nM: 298 MFI
  fold change of MFI vs WT CD80 at 20 nM: 1.5 fold

## CD80_168 variant CD80 IgV-Fc (K9N, E10G, N63S, L85E) (Fc fusion)
Human CTLA-4 (human)
  MFI at 0.8 nM: 415 MFI
  MFI at 4 nM: 631 MFI
  MFI at 20 nM: 830 MFI
  MFI at 100 nM: 3160 MFI
  fold change vs WT CD80 at 20 nM: 0 fold

B1: CD80-Fc-CD80_338 (CD80_180 E10G/V11W/T28Y/M47L, IgG1 Fc) (Fc fusion)
chain: VIHVTKEVKGWATLSCGHNVSVEELAQYRIYWQKEKKMVLTMMSGDLNIWPEYKNRTIFDITNNLSIVILALRPSDEGTYECVVLKYEKDAFKREHLAEVTLSVKADGSGGGGSDKTHTCPPCPAPEAEGAPSVFLFPPKPKDTLMISRTPEVTCVVVDVSHEDPEVKFNWYVDGVEVHNAKTKPREEQYNSTYRVVSVLTVLHQDWLNGKEYKCKVSNKALPAPIEKTISKAKGQPREPQVYTLPPSRDELTKNQVSLTCLVKGFYPSDIAVEWESNGQPENNYKTTPPVLDSDGSFFLYSKLTVDKSRWQQGNVFSCSVMHEALHNHYTQKSLSLSPGGGGGSGGGGSGGGGSVIHVTKEVKGWATLSCGYNVSVEELAQYRIYWQKEKKMVLTMMSGDLNIWPEYKNRTIFDITNNLSIVILALRPSDEGTYECVVLKYEKDAFKREHLAEVTLSVKAD
notes: tetravalent
Human PD-L1 [4]
  Anti-Human Fc (MFI) at 0.8 nM: 6250 MFI
  Anti-Human Fc (MFI) at 4 nM: 9300 MFI
  Anti-Human Fc (MFI) at 20 nM: 11000 MFI
  Anti-Human Fc (MFI) at 100 nM: 12500 MFI
Human PD-L1 [5]
  Fold change vs WT CD80 @20 nM: 16.2 fold

B2: CD80-Fc-CD80_338 (Fc fusion)
chain: VIHVTKEVKGWATLSCGHNVSVEELAQYRIYWQKEKKMVLTMMSGDLNIWPEYKNRTIFDITNNLSIVILALRPSDEGTYECVVLKYEKDAFKREHLAEVTLSVKADGSGGGGSDKTHTCPPCPAPEAEGAPSVFLFPPKPKDTLMISRTPEVTCVVVDVSHEDPEVKFNWYVDGVEVHNAKTKPREEQYNSTYRVVSVLTVLHQDWLNGKEYKCKVSNKALPAPIEKTISKAKGQPREPQVYTLPPSRDELTKNQVSLTCLVKGFYPSDIAVEWESNGQPENNYKTTPPVLDSDGSFFLYSKLTVDKSRWQQGNVFSCSVMHEALHNHYTQKSLSLSPGGGGGSGGGGSGGGGSVIHVTKEVKGWATLSCGYNVSVEELAQYRIYWQKEKKMVLTMMSGDLNIWPEYKNRTIFDITNNLSIVILALRPSDEGTYECVVLKYEKDAFKREHLAEVTLSVKAD
[6]
  Anti-Human Fc (MFI) at 0.8 nM: 367000 MFI
  Anti-Human Fc (MFI) at 4 nM: 439000 MFI
  Anti-Human Fc (MFI) at 20 nM: 470000 MFI
  Anti-Human Fc (MFI) at 100 nM: 511000 MFI
Human CD28 on cells [3]
  Anti-Human Fc (MFI) at 0.8 nM: 552 MFI
  Anti-Human Fc (MFI) at 4 nM: 926 MFI
  Anti-Human Fc (MFI) at 20 nM: 1350 MFI
  Anti-Human Fc (MFI) at 100 nM: 2330 MFI

B3: CD80-Fc-CD80_339 (Fc fusion)
chain: VIHVTKEVKEYATLSCGHNVSVEELAQYRIYWQKEKKMVLTMMSGDLNIWPEYKNRTIFDITNNLSIVILALRPSDEGTYECVVLKYEKDAFKREHLAEVTLSVKADGSGGGGSPCPPCPAPEFLGGPSVFLFPPKPKDTLMISRTPEVTCVVVDVSQEDPEVQFNWYVDGVEVHNAKTKPREEQFNSTYRVVSVLTVLHQDWLNGKEYKCKVSNKGLPSSIEKTISKAKGQPREPQVYTLPPSQEEMTKNQVSLTCLVKGFYPSDIAVEWESNGQPENNYKTTPPVLDSDGSFFLYSRLTVDKSRWQEGNVFSCSVMHEALHNHYTQKSLSLSLGGGGGSGGGGSGGGGSVIHVTKEVKEYATLSCGYNVSVEELAQYRIYWQKEKKMVLTMMSGDLNIWPEYKNRTIFDITNNLSIVILALRPSDEGTYECVVLKYEKDAFKREHLAEVTLSVKAD
notes: also called CD80_185 V11Y/T28Y/M47L barbell
[6]
  Anti-Human Fc (MFI) at 0.8 nM: 210000 MFI
  Anti-Human Fc (MFI) at 4 nM: 305000 MFI
  Anti-Human Fc (MFI) at 20 nM: 322000 MFI
  Anti-Human Fc (MFI) at 100 nM: 320000 MFI
Human CD28 on cells [3]
  Anti-Human Fc (MFI) at 0.8 nM: 520 MFI
  Anti-Human Fc (MFI) at 4 nM: 793 MFI
  Anti-Human Fc (MFI) at 20 nM: 1020 MFI
  Anti-Human Fc (MFI) at 100 nM: 1380 MFI

B4: CD80-Fc-CD80_341 (Fc fusion)
chain: VIHVTKEVKEYATLSCGHNVSVEELAQTRIYWQKDKKMVLTMMSGDMNIWPEYKNRTIFDITNNLSIVILALRPSDEGTYECVVLKQEKDAFKREHLAEVRLSVKADGSGGGGSPCPPCPAPEFLGGPSVFLFPPKPKDTLMISRTPEVTCVVVDVSQEDPEVQFNWYVDGVEVHNAKTKPREEQFNSTYRVVSVLTVLHQDWLNGKEYKCKVSNKGLPSSIEKTISKAKGQPREPQVYTLPPSQEEMTKNQVSLTCLVKGFYPSDIAVEWESNGQPENNYKTTPPVLDSDGSFFLYSRLTVDKSRWQEGNVFSCSVMHEALHNHYTQKSLSLSLGGGGGSGGGGSGGGGSVIHVTKEVKEYATLSCGYNVSVEELAQTRIYWQKDKKMVLTMMSGDMNIWPEYKNRTIFDITNNLSIVILALRPSDEGTYECVVLKQEKDAFKREHLAEVRLSVKAD
notes: also called CD80_197 V11Y/E35D/Y87Q/T101R barbell
Human CD28 on cells [2]
  Fold Increase over WT at 50 nM: 6.42 fold
  Rel. Luminescence Units (RLU) at 2 nM, K562/OKT3/PD-L1 + Jurkat/IL-2 reporter: 13100 RLU
  Rel. Luminescence Units (RLU) at 10 nM, K562/OKT3/PD-L1 + Jurkat/IL-2 reporter: 16000 RLU
  Rel. Luminescence Units (RLU) at 50 nM, K562/OKT3/PD-L1 + Jurkat/IL-2 reporter: 15700 RLU
  Rel. Luminescence Units (RLU) at 250 nM, K562/OKT3/PD-L1 + Jurkat/IL-2 reporter: 15200 RLU
[6]
  Anti-Human Fc (MFI) at 0.8 nM: 206000 MFI
  Anti-Human Fc (MFI) at 4 nM: 280000 MFI
  Anti-Human Fc (MFI) at 20 nM: 297000 MFI
  Anti-Human Fc (MFI) at 100 nM: 282000 MFI
  Fold change vs WT CD80 @20 nM: 0.36 fold
Human CD28 on cells [3]
  Anti-Human Fc (MFI) at 0.8 nM: 676 MFI
  Anti-Human Fc (MFI) at 4 nM: 1070 MFI
  Anti-Human Fc (MFI) at 20 nM: 1410 MFI
  Anti-Human Fc (MFI) at 100 nM: 1740 MFI
  Fold change vs WT CD80 @20 nM: 7.8 fold
